According to the supplement of paper PMC10126150:
± gives the standard deviation of the averaged measurements.

Tested on: ATP
Assay: switch fluorescence ratio, 500 uM ATP over buffer (Cy3 cluster intensity, sum of 5 cycles each) (fold (ratio)); higher = stronger signal-on switching upon ATP binding; sequences stand for … in TCGTCGGCAGCGTCAGATGTGTATAAGAGACAGTTTTTTTTTTTTTTTTTTTTTTTTT…TC
Conditions: aptamer strand: ATP DNA aptamer (quencher-CACCTGGGGGAGTATTGCGGAGGAAGG + anchor), 100 nM annealed; ATP concentration: 500 uM
Procedure, shortened: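 Imaging in selection buffer was followed by imaging after 15 min with 500 uM ATP at 22 °C, for Cy3-labelled switching-strand clusters annealed to 100 nM quencher-labelled ATP aptamer on a modified Illumina MiSeq flow-cell. Five of these buffer/ATP cycles ran, separated by NaOH stripping and re-annealing. The fluorescence ratio per cluster is summed target-cycle over summed buffer-cycle Cy3 intensity, averaged per switch-domain sequence; clusters outside 100-1000 RFU were removed.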
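Note: ATP exposure 15 min at 22 °C before imaging.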

| Sequence | switch fluorescence ratio |
| --- | --- |
| AGGGTATGAA | 0.998 ± 0.022 |
| CGTGGGGCAG | 1.01 ± 0.024 |
| AGAAGGGCCC | 0.9967 ± 0.0016 |
| AAGGGAGAGC | 1.03 ± 0.06 |
| GTGATACAAA | 0.999 ± 0.022 |
| GCGATATGTG | 1.013 ± 0.0073 |
| GTCAATTAGG | 0.997 ± 0.024 |
| GTTTACAAGT | 0.992 ± 0.027 |
| TTGTTGCGGA | 0.997 ± 0.011 |
| AAGGGATTAG | 1.01 ± 0.037 |
| ATAAAAGGCG | 1.021 ± 0.0061 |
| GTTATTGTAT | 0.977 ± 0.014 |
| TTTAGAATAT | 0.9885 ± 0.0018 |
| TCCCTAAAAG | 0.9896 ± 0.0049 |
| AGGGTAATGC | 1.11 ± 0.09 |
| TATTTGAAGT | 0.9885 ± 0.0028 |
| AGGCCAGCTG | 0.993 ± 0.062 |
| ACAAGTGAGG | 1.02 ± 0.023 |
| AAGAGGCGGT | 1.01 ± 0.022 |
| GCCTGTTCGG | 0.977 ± 0.024 |
| ATGTTTCATT | 0.9727 ± 0.0052 |
| CGGGCCGGGT | 0.976 ± 0.031 |
| TCCATCAGCT | 1.1 ± 0.025 |

| Sequence | switch fluorescence ratio |
| --- | --- |
| ATTATAAAAG | 0.989 ± 0.012 |
| GCTGGGTCGA | 1.03 ± 0.01 |
| TAAAAGCTGG | 1.02 ± 0.078 |
| TTGTGGTCGT | 0.9859 ± 0.0074 |
| CATAAGGTCG | 1.03 ± 0.083 |
| AACAGTACAC | 1.22 ± 0.023 |
| AGAGCGCGCC | 1.02 ± 0.05 |
| AAACGGATGC | 0.9573 ± 0.0092 |
| GCGTTAACGG | 1.02 ± 0.011 |
| GGGGAATGAT | 0.98 ± 0.021 |
| CTTGACAGGT | 1.023 ± 0.0058 |
| AGATAATTGG | 1.007 ± 0.0061 |
| GGATCGCGAG | 0.9797 ± 0.0074 |
| GGCTTGCTTT | 1.01 ± 0.021 |
| CCGCTTAGAT | 2.34 ± 0.23 |
| ATAGACGTGT | 1.02 ± 0.092 |
| TTTCTTTGAA | 0.977 ± 0.018 |
| ATTGAAGGGT | 0.981 ± 0.034 |
| GCATGTATAT | 0.978 ± 0.045 |
| TAGCCGGGAC | 1.25 ± 0.26 |
| GTTATTAGAG | 0.987 ± 0.026 |
| CCTCATTGAC | 2.24 ± 0.15 |
| TCGTTCATGA | 1 ± 0.061 |

| Sequence | switch fluorescence ratio |
| --- | --- |
| CTTTATAGGC | 1.04 ± 0.017 |
| ACGTGCACGA | 1.01 ± 0.015 |
| TTCTAGCCTT | 1.043 ± 0.00045 |
| TCTCGGGTTT | 0.9951 ± 0.0055 |
| AAGGGGAATC | 1.01 ± 0.024 |
| TATTTTTCAG | 1.03 ± 0.015 |
| TATGCCTTTT | 1.008 ± 0.0042 |
| AGAGTGAGGG | 0.977 ± 0.0012 |
| GTTGGTAATT | 0.987 ± 0.015 |
| GCAACCCGGA | 1.01 ± 0.012 |
| ATCCAGGTTT | 1.1 ± 0.036 |
| GATTGCATGG | 1.02 ± 0.013 |
| TGTAAGGGGG | 0.989 ± 0.039 |
| TAGGGATAG | 1.01 ± 0.015 |
| TGATAGATGT | 0.983 ± 0.026 |
| CGGGCTTAAG | 1.02 ± 0.037 |
| CCTCTACTGG | 1.12 ± 0.042 |
| TTCATGTGTG | 1 ± 0.081 |
| CGCTAGACAC | 1.49 ± 0.054 |
| TTCCTAAAGT | 0.9622 ± 0.0039 |
| TTTTTAGGG | 0.983 ± 0.034 |
| TTGAGCGGTC | 1.1 ± 0.022 |
| ATGCCGGGGC | 1.02 ± 0.037 |

| Sequence | switch fluorescence ratio |
| --- | --- |
| TATTGGTAGC | 0.984 ± 0.025 |
| TGGAAATTTG | 1.01 ± 0.036 |
| GGGGCTACTT | 1.02 ± 0.013 |
| ACATGAGATT | 1.04 ± 0.015 |
| GGTTTGGAGA | 1.024 ± 0.0091 |
| AGTATTTTGT | 0.974 ± 0.011 |
| CCCTAGGTTT | 1.73 ± 0.79 |
| ATAGAAGAG | 0.978 ± 0.017 |
| AAAGGGGTCT | 1.01 ± 0.031 |
| GGGGTCATGT | 1.03 ± 0.015 |
| AAAAATGCGC | 1.03 ± 0.017 |
| CTAAATCGGC | 1.03 ± 0.035 |
| TTGCACCGGT | 1.034 ± 0.0055 |
| ACGCTCCAGC | 1.056 ± 0.0053 |
| ATGGGGGATT | 1 ± 0.025 |
| AGCCGCCCCG | 1.1 ± 0.1 |
| CGAAGGGCG | 1.03 ± 0.029 |
| ATTTAGGGGA | 1.04 ± 0.056 |
| TTTCGGTGGC | 0.99 ± 0.072 |
| AGATGCTTTA | 0.9908 ± 0.0027 |
| GTTGTCATGT | 0.991 ± 0.017 |
| ACGCGAGTAT | 1.05 ± 0.019 |
| GTTTTTGATG | 0.971 ± 0.021 |

| Sequence | switch fluorescence ratio |
| --- | --- |
| TCCTGATTAT | 0.989 ± 0.011 |
| GCCCCTGTTT | 1 ± 0.023 |
| GGTACGGAGA | 1.02 ± 0.011 |
| CAGGGTTGTT | 0.992 ± 0.026 |
| ATTTCACTCG | 1.01 ± 0.036 |
| CGGACTTTTC | 1.042 ± 0.0018 |
| GATAGGACGC | 1.05 ± 0.02 |
| GGGATAGGAG | 1 ± 0.03 |
| TAATTGGTTG | 0.982 ± 0.012 |
| TTCAGATGAA | 0.9987 ± 0.0015 |
| CGGTGCGGGA | 1.01 ± 0.011 |
| CGCAATTAGG | 3.97 ± 0.46 |
| CCCGGCGAT | 1.85 ± 1.2 |
| AGGTGTGGGT | 1.01 ± 0.037 |
| GGGATTGTAA | 0.982 ± 0.021 |
| GCATTCGCCT | 1.08 ± 0.035 |
| CACGAGGGAG | 0.982 ± 0.022 |
| ACCAGGCCGC | 1.08 ± 0.03 |
| CCAATGGGAA | 1.01 ± 0.025 |
| TGGTGAAAGC | 0.991 ± 0.022 |
| TCACGATTTA | 0.99 ± 0.057 |
| ATTGGAATTG | 1.02 ± 0.035 |
| TGGGAAGACC | 1.02 ± 0.025 |

| Sequence | switch fluorescence ratio |
| --- | --- |
| GGTTACGGGT | 0.994 ± 0.057 |
| GTTTGTCCTG | 1.007 ± 0.0071 |
| CTCATGAAAA | 1.02 ± 0.02 |
| TTTTAGTTAA | 1.01 ± 0.03 |
| AAAATTGACT | 1.002 ± 0.003 |
| GCAGCCCCTG | 1.02 ± 0.048 |
| AGGTTAGGGG | 0.998 ± 0.037 |
| GTGAGGGGCT | 0.977 ± 0.04 |
| TATCAAAGGC | 1.014 ± 0.0082 |
| GGCAGGGGTA | 0.995 ± 0.028 |
| TAGGTTAAAG | 1.01 ± 0.027 |
| ATCGCAGACA | 1.04 ± 0.015 |
| AAGGGTGTTG | 1.01 ± 0.017 |
| TATATGGAGG | 0.956 ± 0.032 |
| GAAACCAGAG | 1.39 ± 0.014 |
| AAGTTTTAAG | 1 ± 0.021 |
| AAAAGGGAGG | 1.03 ± 0.019 |
| CGGTTAGATG | 1 ± 0.047 |
| TTGCGATGGG | 0.995 ± 0.03 |
| GGTCCGGGTT | 1.006 ± 0.01 |
| AGGGCTGACG | 1.02 ± 0.024 |
| AACGGGCCAC | 1.079 ± 0.0077 |
| ATAAATCGAT | 1.023 ± 0.0018 |

| Sequence | switch fluorescence ratio |
| --- | --- |
| TTGGGGAGAA | 0.98 ± 0.035 |
| TCTTTTGGCA | 1.1 ± 0.078 |
| GAGGGGGACG | 1 ± 0.14 |
| ATATCAGACT | 0.99 ± 0.015 |
| TTTAGATAAC | 1.02 ± 0.044 |
| TTTATGGCTT | 1.01 ± 0.046 |
| TAGGGAGGGG | 0.973 ± 0.028 |
| TGTGTGGGGG | 1.01 ± 0.031 |
| TGGGGTGCTG | 1.05 ± 0.016 |
| ACGGTTAGTG | 1.01 ± 0.018 |
| TTTCAAGTTT | 1.16 ± 0.3 |
| ATGCAGAGAG | 1.01 ± 0.031 |
| ATGTCCATTA | 0.994 ± 0.01 |
| TTTGTAAAAG | 0.977 ± 0.033 |
| TCGGTTTTTT | 1.01 ± 0.038 |
| CGGATCGTTG | 0.9655 ± 0.0084 |
| GCTATTAAAG | 1 ± 0.026 |
| ATTGTGAGGT | 0.992 ± 0.039 |
| GGGTCCTGGC | 0.985 ± 0.037 |
